In the nanobody polyreactivity screen of Harvey et al. (2022):

Experiment: yeast display, Sf9 membrane polyspecificity reagent, FACS + sequencing; frameworks hold sequencing errors
In short: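 Galactose-induced (36–48 hours) yeast carrying a synthetic nanobody display library were exposed to 10% biotinylated, detergent-solubilized Sf9 membrane reagent at 4 °C for 1 hour. FACS followed streptavidin microbead enrichment, using low and high (top ~1%) gates for expression (anti-HA) and reagent binding (streptavidin). Colony PCR, MiSeq 2 × 250 sequencing and CDR-length filtering followed. Labels for polyreactivity reflect the gate of origin.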

| Sequence | polyreactivity (PSR sort gate) |
| --- | --- |
| QVQLVESGGCLVQAGGSLRLSCAASGLTFIVYAMGWYRQAPGKERELVADITWSGGSTYYADSVKGRYTISRDNAKITVYLQMNSLKPVDTAVYYCNRQSAKIMDYWGQGTQVNVSS | low polyreactivity |
| QVQLVESGGGLVQAGGSLRLSCAASGRIFDYYAMGWYRQAPGKERELVATINFSDGSTYYADSVKGRFTISRDNAKNTVYLQMNSLKPEDTAGYYCAAAGWEPYDSLDMNYWGQGTQVTVSS | low polyreactivity |
| QVQLVESGGGLVQAGGSLRLSCAASGRIFKYYVMGWYRQPPGKERELVAGISSSGGSTYYADSVKGRFTISRDNAKNTVYLQMNSLKPEDTAVYYCAADYTFAYYNVKMDYWGQGTQVTVSS | low polyreactivity |
| QVQQQESGGGLVQAGGSLRLSCAASGNIFRFTRMGWYRQGPGQVREFVAGIGDGSTTYYADSVKGRFTISRDNAKNTVHLQMNSQKPEDTAVYSCAVGDSGFVHHPYWGQGTQVTVSS | high polyreactivity |
| QVQLVESGGGLVQAGGSLRLSCAGSGFISYYYAMGWYRQAPGKEREFVAAITSSGGSTRYADSVKGRFTISRDNAKNTVYLQMNSLKPEDTAVYYCNADYYWFFDFFDYDYWGQGTQVTVSS | low polyreactivity |
| QVQLVESGGGLVQAGGSLRLSCAASGSTLFLYAMGWYRQAPGKERELVAAITWSGGSTYYADSVKGRFTISRDNAKKTVYLQMNSLKPEDTAVYYCAKYGRYFWNSGVDYWGQGTQVTVSS | high polyreactivity |
| QGQLVESGGGLVQAGGSLRLSCAASGFTFTRNTMGWYRQAPGKERELVAAITRGGSTNYADSVKGRFTISRDNAKNTVYLQLNSLKPEDTAVYYCNKGRNVVLVRTADDYWGQGTQVTVSS | low polyreactivity |
| QVQLVESGGGLVQAGGSLRLSCAASGSIFTRNTMGWYRQAPGKERELVAAINRSGGRTYYADSVKGRFTISRDNAKNSVYLTMNSLKPEDTAVYYCAAYTQGSRYDYWGQGTQVTVSS | high polyreactivity |
| QVQLVESRGGLVQAGGSLRLSCAASGRTIGLNAMGWYRQAPRKERELVASAITGGGDSTYYADSVKGRFTMSRDNAKNPVYLQMNSVKPEDTAVYYCAKRYSRGSQYDYWGQGTQVTVSS | high polyreactivity |
| QVQLVESAGGLVQAGGSLRLSCAASGRIFSYKAMGWYRQAPGKQRELVAAISYSGGRTYYADSVKGRFTISRDNAKNTVYLQMYSLKPEDTAVYYCAAEAHLAGFYRYYGGYGYDYWGQGTQVTVSS | high polyreactivity |
| QVQLVESGGGLVQAGGSLRLSCAASGNIFKVYVMGGSRQAPGKERELVAAISGSGGSTYYADSVKGRFTISRDNAKTTVYLQMNSLKPEDTSVYYCNKVFKVTAARSFGYWGQGTQVTVSS | low polyreactivity |
| QVQLVESGGGLVQAGGSLRLSCAASGSTFRFYAMGWYRQAPGKERELVATISSSGGTTYYADSVKGRFTISRDNAKNTVYLQMNSLKPEDTAVYYCAARYYDTRWRYYYWGQGTQVTVSS | high polyreactivity |
| QVQLVESGGGLVQAGGSLRLSCAASGNTFVPYVMGWYRQAHGKERELVAAISRRGGSTRYADSVKGRFTISRDNAKNTVYLQMNSLKPEDTAVYYCAADGYVFALQRSRGVDFGYEYWGQGTQGTVSS | high polyreactivity |
| QVQLEESGGRLVQAGGSLRLSCAASGSTFSNNAMGWYRQAPGKERELVAAIRTSGGRTYYADSVKGRFTISRDNAKHTVYLQMNSLKPEDTAVYYCAKRWVYRYGYEYWGQGTQVTVSS | high polyreactivity |
| QVQLVESGGGLVQAGGSLRLSCAASGFTFYRNTMGWYRQAPGKERELVAAITQRGGSTYYADSVKGRFTISRDNAKNTVYLQMNSLKPEDTAVYYCNRDVKVLYASSHSPYGYDHWGQGTQVTVSS | low polyreactivity |
| QVQLVESGGGLVQAGGSLRLSCAASGRIFVGYALGWYRQAPGKERELVAAINRSGSSTYYADSVKGRFTISRDNAKNTDYLQMNSLKPEDTAVYYCNARSGNRYGPRYDYWGQGTQVTVSS | high polyreactivity |
| QVQLVESGGGLVQAGGSLRLSCAASGSIFAYYAMGWYRQAPGKERELVAAISWSGGRTYYADSVKGRFTISRDNAKNTVYLEMNSLIPEDTAVYYCTAYFYSFYYPFPYESWGQGTQVTVSS | low polyreactivity |
| QVQLVESGGGLVQAGGSLRLSCAASGFTFIPYAMGWYRQAPGKERELVAAISRKGGRTYYADSVKGRFTISRDNAKNTVYLQMNSLKPEDTAVYYCAVSQYRGIYRKYDYWGQGTQVTVSS | high polyreactivity |
| QVQLVESVGGLVQAGGSLRLSCAASGSIFEWSAMGWYRQAPGKERELVADISSVGSTYYADSVKGRFTISRDNAKNTVYLQMNSLKPEDTAVYYCAADGTWVRSPHFYYWGQGTQVTVSS | low polyreactivity |
| QVQLVESGGGLVQAGGSLRLSCAASGLTFYPNAMGWYRQAPGKEREFVASISISGRTYYADSVKGRFTISRDNAKNTVYLQMNSLKPEDTAVYYCAARYVRSGLYRKYDYWGQGTQVTVSS | high polyreactivity |
| QVQLVESGGGLVQAGGSLRLICAASGSIFSYYAMGWYIKAPGKERELVAVINSGGRTNYADSVKGRFTISRDNAKNTVYVQMNSLKPEDTAVYYCAAQCYFVERAGRYYRGEYWGQGTQVTVSS | high polyreactivity |
| QVQLVESGGGLVQAGGSLRLSCAASGYIFAGNAMGWYRQAPGKERELVAVITRGGRTYYADSVKGRFTISRDNAKNTVYLQMNSLKPEDTAVYYCAARYPYRGWGQGTQVTVSS | high polyreactivity |

| Sequence | polyreactivity (PSR sort gate) |
| --- | --- |
| QVQLVESGGGLVQAGGSLRLSCAASGLIFKFYAMGGYRQAAGKERELVARISSSGGSTYYADSVKGRFTISRDNAKNTVYLQMNSLKPEDTAVYYCAAGAYYVERYARSSIFSYYYWGQGTQVTVSS | high polyreactivity |
| QFHLVESGGGLVQAGGSLRLSCAASGITFGYYAMGWYRQAPGKERELVAAISGSASRTYYADTVKGRFTISRDNAKNTVYLQMNSLKQEDTAVYYCNARGGGTASCYYYWGPGTQVTVSS | high polyreactivity |
| QVQHVESGGGLVQAGGSLRLSCAASGSTFGRYGMGWYRQAPGTERELVAAISRGGGTNYADSVKGRFTISRDNAKKTVYLQMNSLKPEDTAVYYCNARWYYALYDYWGQGTQVTVSS | low polyreactivity |
| QVQVVESGGGLVQAGGSLRLSCAASGFTFSFYAMGWYRQAPGKERELVAAISSGGTTSYADSVKGRFTISRDYAKNTVYLQMNSLKPEDTAVYYCATDVYYYRTGAYTSTKPYDYWGQGTQVTVSS | low polyreactivity |
| QVQLVESGGGLEQAGGRLRLSCADSRRIFGRYAMGWYRQAPGKERELVAAINQSGSTTYYADSVKGRFTISRDNAKNTVYLQMNSLKPEDTAVYYCAADGNGVDYDYWGQGTQVTVSS | low polyreactivity |
| QVQLVESGGGIVQAGGSLRLSCAASGFIFDVYAMGWYRQAPGKERELVAAISRSGGSTYYADSVKGRFTISRDNAKNTVYLQMNSLKPEDTAVYYCATDLLNNVDYDYWGQGTQVTVSS | low polyreactivity |
| QVQLVESGGGLVQAGGSLRLSCAASGSTITVNDMGWYRQAPGKERELVAAITQRDGRTFYADSVKGRFTISRDNAKNTVYLQMNSLKPVDTSVYYFAADYVWYTYGDYDYWGLGTQVTVSS | low polyreactivity |
| QVQLVESGGVLVQAGGILRLSCAASGRIFYGNTMGWYRQAHGKERELVAAISRSGGSTYYADSVKGRFTSSRDNAKNTVYLQMNSLKPEDTAVYYCAAKRSWGYDYWGLGTQVTVSS | high polyreactivity |
| QVQLEEAGGGLVQAGGSLRLRCAASGRTFWYYAMGWYRQAPGKERELVAAITSGGSTNYADSVKGRFTISRDNEKNTVYLQMNSLKPEDTAVYYCAKLFRKRRSWDWYDYWGQGTQVTVSS | high polyreactivity |
| QVQLVESGGGLVQAGGSLRLSCAASGSIFRPKAMGWYRQAPGKERELVAAINTSDDSTYYADSVKGRFTISRDNAKNSVYLQMNSLKPEDTAVYYCAAEYYAYPYGDYYDYWGQGTQVSVSS | low polyreactivity |
| QVQLVESGGGLVQAGGSLRLSCAASGFILAYYEMGWYRQAPGKERELVAAISIGSSTDYADSVKGRFTISRDNAKNTVYLQMNSLKPEDTAVYYCAARDYYYEYDYWGQGTQVTVSS | low polyreactivity |
| QVQLVESGGGLVQAGGSLRLSCAASGRTFYLYAMGWYRQAPGKERELVADISWDGDSTYYADSVKGRFTISRDNAKNTVYLQMNSLKPEDTAVYYCAADYFYYYEQYLWYTYDYWGQGTQVTVSS | high polyreactivity |
| QDQIVESRGRLVQAGGSLRLSCAASGRTFKPYAMGWYRQAPGKERELVARISGSGGSTYYADSVKGRFTISRDNAKNTVYLQMNSLKPEDTAVYDCATTPYYWFYYWGQGTQVTVSS | low polyreactivity |
| QVQLVESGGGLVQAGGSLRLSCAASGLTLSYNAMGWYRPAPGKERELVAAIRSGGSTNYADAVKGRFTISRDNANNTVYLQMNSLKPEDTAVYYCAARCRYLPYRDGRYQSGYEYWGQGTQVTVSS | high polyreactivity |
| QVQLVESGGGLVHAGGSLRLSCAASGSTFGYYAIGWNRQAPGKERELVAVITGSGGSTYYADSVKGRFTISRDYAKNTVYLQMNSLKPEDTAVYYCAARRWNPTYEYWGQGTQVTVSS | high polyreactivity |
| QVQLVESGGGLVQAGASLRLSCAASGSTFPYYAMGWYRQAPGKERELVAAISGSGGTTYYADSVKGRFTISRDNAKNTVYLQMNSLKPEDTEVYYCAVDIGVGYGYYYWGQGTQVTVSS | low polyreactivity |
| QVQLVESGGGLVQAGGSLRLSCAASGSIFSRYAMGWYRQAPGKERELVAAINGRGSRTYYADSVKGRFTISRDNEMNTVYLQMNSLKPEDTAVYYCAAGRSRLYGPRYFIYKYNYWGQGTQVTVSS | high polyreactivity |
| QVQLVESGGGLVQAGGSLRLSCAASGSNFGSYTMGWYRQAPGKERELDAAITSGGGNTYYADSVKGRFTISRDNAKNTVYLQMNSLKPEDTAVYYCNATVRGRNALGRVQKYYYWGQGTQVTVSS | high polyreactivity |
| QVQLVESGGGLVEAGGSLRLICAAAGSNFSYYAMGWYRQAPGKERELVAAISWNGGRTYYADSVKGRFTISRDNAKYSVYLQMNSLKPEDTAVYYCAARSSYKFYYWGQRTQVTVSS | high polyreactivity |
| QVQLEESGGGLVQAGGSLRLSCAASGSIFRGYAMGWYRQAPGKERELVAAINWSGSSTYYADSVKGRFTISRDNAKNTVYLQMNSPKPEDTAVYYCARVYYNRNLGGDYWGQGTQVTVSS | low polyreactivity |
| QVQLVESGGGLVQAGGSLRLSCAASGSTLSRYAMGWYRQAPGKERELVAAISWSGGRTYYADSVKGRFTISRDYAKNTVYLQMNSLKPEDTAVYYCAARYGYRTPDGDYWGQGTQVTVSS | high polyreactivity |
